Measured values taken from the supplement of paper PMC9170038.

System: MS2 coat protein
Assay: apparent KD of MS2 coat protein; higher = weaker reporter binding
Details: Eterna round: R107
Procedure, shortened: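 Designed RNA switches, transcribed on-chip from Illumina sequencing clusters, were titrated with SNAP-549-labelled MS2 coat protein from 0.7 or 1.5 nM to 3 µM in twofold steps. The solution was 100 mM Tris-HCl pH 7.5, 80 mM KCl, 4 mM MgCl2, with constant ligand or without it. Apparent KD is the median over each design's normalised cluster binding-curve fits.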

[1] = input ligand: theophylline 20 uM
[2] = input ligand: theophylline 2 mM
[3] = input ligand: tryptophan 2.4 mM

Sequence | apparent KD of MS2 coat protein (input ligand: arginine 13.2 mM) | apparent KD of MS2 coat protein [1] | apparent KD of MS2 coat protein [2] | apparent KD of MS2 coat protein (input ligand: none) | apparent KD of MS2 coat protein [3]
UAUAUAUAUCACGAACUGUGGUGUAUGUCCCGAGGACCGGUACGGCCGCCACUCGCGUGGUUCCACAUGAGGAUCACCCAUGUUG [XTryp A #7] | 20.9 nM | 31.3 nM | 25.9 nM | – | –
UAUCCACAUGAGGAUCACCCAUGUAGGGAAGGAGCGGUGAUUUCACCAGGUAGGUCGCCUUGCUGAGGGUUGCCGGUGGAAUCGU [Exclusion - Arginine A (Freestyle 33)] | 12.5 nM | 14.8 nM | 13.1 nM | 15.7 nM | 16.2 nM
UAUCCACAUGAGGAUCACCCAUGUUAGGAAGGAGCGGUGAAUGAACCAGGUAGGUCGCCUAGCUGAGGACCAUCAAUGGAUUCGU [Exclusion - Arginine A (Freestyle 14)] | 18.1 nM | 35.4 nM | 36.8 nM | 31.8 nM | 38.1 nM
UAUCCACAUGAGGAUCACCCAUGUUAGGAAGGAGCGGUGAAUGAACCAGGUAGGUCGCCUAGCUGAGGACCAUCGAUGGAUUCGU [Exclusion - Arginine A (Freestyle 15)] | 17 nM | 25.5 nM | 27.5 nM | 20.3 nM | 20.1 nM
UAUCGUCAGACGGCCGCCACUAGAACAUGAGGAUCACCCAUGUAGGCGGCCGAUUCCUCAUGAACUAGGACCGGGUCUGACGAAU [(Trp1)-(Ms2)-(T)'-(M)'-(Trp2)_Design12] | 8.18 nM | 26 nM | 8.89 nM | 6.6 nM | 13.3 nM
UCAAGUGAACCAUGGAAACAUUCAAUAGAUACCAGCAUUAAAACCUGCCCUUGGCAGCUAUGAACAUGAGGAUCACCCAUGUGAA [theeternabot_exclusion_MS2_Theo_A_21] | 17.3 nM | 23.3 nM | – | – | 19.2 nM
UCGACAAGAACAAUAAACAGCACUUGAGAAGGAGCGCGGAAAUCCGCAGGUAGGUCGCUCAUGUGUACAUGAGGAUCACCCAUGU [Inveonxeed] | 32.6 nM | 49.3 nM | 40.8 nM | 39.7 nM | 34.5 nM
UCGCGAUAGAGAAGGAGCGUCAACACCACUUAACAUGAGGAUCACCCAUGUGUUACUUUGUGACAGGUAGGUCGCUCUAGCGCUU [JR_Nu_ExcArginiB_Sub026] | 21.1 nM | 25.3 nM | 20.9 nM | 19.3 nM | 18.4 nM
UCGCUCUGGGUGAAUCCCAGAGAUAUGGAAGGAGCGGACGAAAGUCCAGGUAGGUCGCCAUCGAACAUGAGGAUCACCCAUGUAC [Same State - Arginine A (Freestyle 27)] | 62.1 nM | 57.8 nM | 76.6 nM | 47.6 nM | 76.8 nM
UCGUUUUAGUCGGCCGCCACUGUAUGCAUGUUUAACAUGAGGAUCACCCAUGUCCCGUACUAUUUCAGGACCGGGACGUAAUCGA [JR_SSTryptoB_Sub007] | 140 nM | 301 nM | 484 nM | – | –
UCGUUUUAGUCGGCCGCCACUGUGAGCAUGGUUAACAUGAGGAUCACCCAUGUCCCGUACUAUAACAGGACCGGGACGUAGUUGC [#09 Same State - Tryptophan B] | 76.4 nM | 109 nM | 253 nM | – | –
UCUUUCUAUUGUGAUACCAGACGUACAUGAGGAUCACCCAUGUUUCAUUCUUGUUUUAAAGUCCCUUGGCAGCACUAUUUGUUCG [JR_Nu_ExcTheophyB_Sub028] | 19.6 nM | 23.9 nM | – | – | 15.9 nM
UGACAUUGCUCAGAUACCAGACAUGAGCAUCAGCCAUGUACCAAGAGUACAUGUUAAAAUGUCCCUUGGCAGCUGAGCAAUGUCU [Mod of Eli's TheoBX5 #AlternateMS2 v2] | 73.6 nM | 203 nM | 452 nM | 67.6 nM | 60.1 nM
UGAUACCAGUCGGCCGCCACUAUGCUAGAUACUAGCAAUAAAUGGGAACAUGAGGAUCACCCAUGUAGGACCGGGACUGGUAUCU | 32.1 nM | 42.9 nM | 42.7 nM | 33.6 nM | 64 nM
UGAUAUGUGGGAAGGAGCGCAUACUUCACAUGAGGAUCACCCAUGUCAAGACGUGAGUCAGUGCAGGUAGGUCGCCUAGUUAUGA [Same State - Arginine B (Freestyle 19)] | 36.8 nM | 101 nM | 147 nM | 124 nM | 85.3 nM
UGAUGGUGCGGAAGGAGCGUGUAAGAACAAGAACAUGAGGAUCACCCAUGUAUUAAUUUAACACAGGUAGGUCGCCGUGUUAUUG [11.K] | 29.6 nM | 39.3 nM | 29.6 nM | 35.5 nM | 20.2 nM
UGAUGGUUCGGAAGGAGCGUGUAAGAACAAGAACAUGAGGAUCACCCAUGUAUUAAUUUAACACAGGUAGGUCGCCGGGUUAUUG [11.J] | 20.9 nM | 23.1 nM | 22.2 nM | 16.3 nM | 14.4 nM
UGCACUCAUGCGGCCGCCACUGUCGGCCGCCACUAAACAUGAGGAUCACCCAUGUAGGACCGGGACAGGACCGGGCAUGGGUGCU [TryBS - #DoubleAptamer 2] | 12.9 nM | 20.7 nM | 13.8 nM | 15.7 nM | 9.97 nM
